Article doi:10.1101/2020.10.04.325654
pEC50: −log10 of the molar value. Read-outs that look alike come from different tables or passages of the source.

How the values were obtained:
Experiment in all cases: ELISA
[1] = biological target: His-tagged ASH/RhoGAP domain of OCRL (536aa-901aa) (human) (UniProt Q01968)
[2] = biological target: His-tagged ASH/RhoGAP domain of OCRL (536aa-901aa) (human) (UniProt Q01968); remark: listed apart in the source
[3] = biological target: His-tagged ASH/RhoGAP domain of OCRL (536aa-901aa) (human) (UniProt Q01968); remark: listed apart in the source

Sequence of His-tagged ASH/RhoGAP domain of OCRL (536aa-901aa) (human) (Q01968 536-901): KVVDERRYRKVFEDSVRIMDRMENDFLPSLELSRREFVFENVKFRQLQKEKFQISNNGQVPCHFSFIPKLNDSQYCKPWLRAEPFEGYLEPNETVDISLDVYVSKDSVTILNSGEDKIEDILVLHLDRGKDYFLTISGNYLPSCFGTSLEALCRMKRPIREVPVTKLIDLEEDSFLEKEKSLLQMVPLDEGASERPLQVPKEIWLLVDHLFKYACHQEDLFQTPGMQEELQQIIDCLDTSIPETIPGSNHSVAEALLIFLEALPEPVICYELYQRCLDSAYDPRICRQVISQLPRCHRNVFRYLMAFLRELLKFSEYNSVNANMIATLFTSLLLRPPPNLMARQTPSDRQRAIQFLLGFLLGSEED

Substance | pEC50 [1] | pEC50 [2] | pEC50 [3]
GST-SdhA-CBM2 (from UniProt Q6RCQ3 1029-1260) (domain or fragment) | 7.06 | 7.09 | –
GST-SdhA-CBM2A (from UniProt Q6RCQ3 1029-1080) (domain or fragment) | – | 7.57 | 8.09
